The record followed here is publication PMC5811025.

Test [1] deals with PrxQ:C54S (Corynebacterium glutamicum). Nature of the test: mixed-disulfide heterodimer formation on non-reducing SDS-PAGE; 20 μM PrxQ variant and 15 μM Trx (WT or variant) in 30 mM Tris-HCl pH 8.0, 1 mM EDTA, room temperature 15 min, then 50 μM H2O2 for 30 min; 15% non-reducing SDS-PAGE.
In test [2] the target is tag-free recombinant native peroxiredoxin Q (PrxQ) from Corynebacterium glutamicum (Corynebacterium glutamicum).

A word on the stoichiometry N: it is the number of molecules, sites or subunits per partner or assembly. In the case of His6-Trx1:C35S (natural protein), in test [1], the stoichiometry N is 1.

For His6-Trx2:C33S (natural protein), in test [1], the stoichiometry N turned out to be 1.

Take Trx1 WT (wild type) (natural protein): the Km for Trx1 of the peroxidase activity of PrxQ with CHP (NADPH-coupled assay, Trx1/TrxR system, 0-120 μM Trx, 1 μM PrxQ) in test [2] amounted to 4.41 µM.

As to Trx2 WT (wild type) (natural protein), the Km for Trx2 of the peroxidase activity of PrxQ with CHP (NADPH-coupled assay, Trx2/TrxR system, 0-120 μM Trx, 1 μM PrxQ) in test [2] was 5.43 µM.
